# Data as given in the supplement of paper PMC9112550, “Optimization of the antimicrobial peptide Bac7 by deep mutational scanning” (BMC Biology, 2022).
# Tested on: Escherichia coli TOP10
# Assay: shrunken log2 fold change of peptide-encoding DNA abundance (4.5 h post-induction vs induction); higher = less antimicrobial activity (less host growth inhibition)
# Conditions: time post-induction: 4.5 h; library: site-saturation at positions 5, 18, 19, 20
# 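Also: peptides expressed intracellularly from a pBAD plasmid library in pooled LB shake-flask culture, induced with 0.3% L-arabinose, DNA abundance read by NGS, three biological replicates, DESeq2 with apeglm shrinkage.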
row,Sequence,shrunken log2 fold change
1,RRIRHRPPRLPRPRPRPTNLPRP,-0.288
2,RRIRQRPPRLPRPRPRPRCIPRP,-0.188
3,RRIRPRPPRLPRPRPRPGSRPRP,0.144
4,RRIRMRPPRLPRPRPRPEREPRP,1.76
5,RRIRARPPRLPRPRPRPGGKPRP,0.563
6,RRIRIRPPRLPRPRPRPSIKPRP,-0.64
7,RRIRQRPPRLPRPRPRPHHQPRP,0.18
8,RRIRERPPRLPRPRPRPLWKPRP,-0.424
9,RRIRYRPPRLPRPRPRPRGVPRP,0.0913
10,RRIRTRPPRLPRPRPRPAPLPRP,0.368
11,RRIRARPPRLPRPRPRPMQGPRP,0.601
12,RRIRPRPPRLPRPRPRPYHKPRP,-1.15
13,RRIRNRPPRLPRPRPRPIPCPRP,-0.0228
14,RRIRQRPPRLPRPRPRPKWSPRP,0.0364
15,RRIRSRPPRLPRPRPRPLRTPRP,0.787
16,RRIRPRPPRLPRPRPRPHMEPRP,-0.0417
17,RRIRIRPPRLPRPRPRPYVMPRP,-0.274
18,RRIRLRPPRLPRPRPRPDDTPRP,-0.0691
19,RRIRIRPPRLPRPRPRPMTGPRP,-0.4
20,RRIRIRPPRLPRPRPRPPVCPRP,0.108
21,RRIRCRPPRLPRPRPRPTGGPRP,0.561
22,RRIRVRPPRLPRPRPRPAFRPRP,0.186
23,RRIRERPPRLPRPRPRPPMGPRP,-0.107
24,RRIRVRPPRLPRPRPRPWQNPRP,0.013
25,RRIRWRPPRLPRPRPRPLFGPRP,0.352

row,Sequence,shrunken log2 fold change
1,RRIRLRPPRLPRPRPRPTQDPRP,0.488
2,RRIRMRPPRLPRPRPRPNYPPRP,-0.445
3,RRIRLRPPRLPRPRPRPDCCPRP,0.0778
4,RRIRQRPPRLPRPRPRPTNYPRP,-0.248
5,RRIRNRPPRLPRPRPRPKNNPRP,-0.407
6,RRIRKRPPRLPRPRPRPLPDPRP,-0.105
7,RRIRDRPPRLPRPRPRPPSAPRP,0.506
8,RRIRMRPPRLPRPRPRPEWVPRP,0.32
9,RRIRERPPRLPRPRPRPVAMPRP,-0.00351
10,RRIRIRPPRLPRPRPRPYRDPRP,-0.0075
11,RRIRGRPPRLPRPRPRPANFPRP,0.0804
12,RRIRERPPRLPRPRPRPPQKPRP,-0.0624
13,RRIRNRPPRLPRPRPRPMPLPRP,-0.0789
14,RRIRPRPPRLPRPRPRPLWIPRP,-0.128
15,RRIRNRPPRLPRPRPRPKDNPRP,-0.484
16,RRIRHRPPRLPRPRPRPRWTPRP,0.0902
17,RRIRDRPPRLPRPRPRPVGAPRP,0.825
18,RRIRSRPPRLPRPRPRPKCPPRP,-0.118
19,RRIRIRPPRLPRPRPRPNPVPRP,0.087
20,RRIRLRPPRLPRPRPRPWPMPRP,-0.0188
21,RRIRIRPPRLPRPRPRPFDTPRP,0.0514
22,RRIRMRPPRLPRPRPRPLWCPRP,0.147
23,RRIRQRPPRLPRPRPRPYHQPRP,-0.631
24,RRIRRRPPRLPRPRPRPGVAPRP,0.858
25,RRIRIRPPRLPRPRPRPNVLPRP,-0.349

row,Sequence,shrunken log2 fold change
1,RRIRGRPPRLPRPRPRPPFTPRP,0.462
2,RRIRARPPRLPRPRPRPIVFPRP,-0.0956
3,RRIRARPPRLPRPRPRPTYWPRP,0.144
4,RRIRNRPPRLPRPRPRPVEIPRP,-0.0323
5,RRIRNRPPRLPRPRPRPQRWPRP,0.176
6,RRIRNRPPRLPRPRPRPQRNPRP,-0.109
7,RRIRQRPPRLPRPRPRPMNAPRP,0.0115
8,RRIRCRPPRLPRPRPRPTNRPRP,-0.356
9,RRIRQRPPRLPRPRPRPYGLPRP,-0.048
10,RRIRWRPPRLPRPRPRPLHIPRP,-0.465
11,RRIRMRPPRLPRPRPRPRYIPRP,-0.31
12,RRIRWRPPRLPRPRPRPHYKPRP,-0.631
13,RRIRQRPPRLPRPRPRPMSEPRP,0.0772
14,RRIRHRPPRLPRPRPRPQILPRP,-0.0081
15,RRIRRRPPRLPRPRPRPNMMPRP,-0.245
16,RRIRCRPPRLPRPRPRPSKSPRP,-0.0548
17,RRIRARPPRLPRPRPRPDFFPRP,0.307
18,RRIRPRPPRLPRPRPRPHPHPRP,0.0281
19,RRIRFRPPRLPRPRPRPWYAPRP,-0.791
20,RRIRDRPPRLPRPRPRPVDNPRP,0.0262
21,RRIRKRPPRLPRPRPRPEEDPRP,0.0229
22,RRIRQRPPRLPRPRPRPDECPRP,0.0568
23,RRIRARPPRLPRPRPRPDEIPRP,0.357
24,RRIRHRPPRLPRPRPRPWAIPRP,0.112
25,RRIRQRPPRLPRPRPRPYTQPRP,-0.25

row,Sequence,shrunken log2 fold change
1,RRIRLRPPRLPRPRPRPFATPRP,-0.0878
2,RRIRRRPPRLPRPRPRPESLPRP,0.0493
3,RRIRYRPPRLPRPRPRPTRVPRP,0.303
4,RRIRHRPPRLPRPRPRPPQGPRP,0.133
5,RRIRWRPPRLPRPRPRPCLHPRP,-0.01
6,RRIRMRPPRLPRPRPRPRDEPRP,1.43
7,RRIRKRPPRLPRPRPRPRQQPRP,0.395
8,RRIRERPPRLPRPRPRPHLPPRP,-0.136
9,RRIRVRPPRLPRPRPRPYPAPRP,-0.715
10,RRIRTRPPRLPRPRPRPSQQPRP,0.117
11,RRIRTRPPRLPRPRPRPDVKPRP,-0.521
12,RRIRIRPPRLPRPRPRPAASPRP,0.241
13,RRIRRRPPRLPRPRPRPFHEPRP,-0.195
14,RRIRRRPPRLPRPRPRPNAFPRP,-0.0721
15,RRIRWRPPRLPRPRPRPYCGPRP,-0.187
16,RRIRSRPPRLPRPRPRPDCNPRP,0.265
17,RRIRLRPPRLPRPRPRPEQLPRP,0.131
18,RRIRYRPPRLPRPRPRPHTTPRP,-0.0318
19,RRIRVRPPRLPRPRPRPLYCPRP,-0.596
20,RRIRHRPPRLPRPRPRPCHSPRP,-0.19
21,RRIRTRPPRLPRPRPRPRGKPRP,0.259
22,RRIRGRPPRLPRPRPRPVAWPRP,0.508
23,RRIRDRPPRLPRPRPRPLMCPRP,0.498
24,RRIRMRPPRLPRPRPRPPFGPRP,0.789
25,RRIRLRPPRLPRPRPRPVAHPRP,-0.454

row,Sequence,shrunken log2 fold change
1,RRIRNRPPRLPRPRPRPLCGPRP,-0.13
2,RRIRGRPPRLPRPRPRPGNEPRP,0.0696
3,RRIRPRPPRLPRPRPRPLYTPRP,-0.37
4,RRIRYRPPRLPRPRPRPTKKPRP,0.113
5,RRIRFRPPRLPRPRPRPCSEPRP,0.0135
6,RRIRNRPPRLPRPRPRPSYVPRP,-0.0484
7,RRIRWRPPRLPRPRPRPVTQPRP,-0.0775
8,RRIRNRPPRLPRPRPRPETFPRP,0.00884
9,RRIRYRPPRLPRPRPRPRPSPRP,0.0768
10,RRIRKRPPRLPRPRPRPDDTPRP,2.31
11,RRIRSRPPRLPRPRPRPCRTPRP,-0.2
12,RRIRKRPPRLPRPRPRPCTLPRP,0.0143
13,RRIRSRPPRLPRPRPRPVVGPRP,0.267
14,RRIRSRPPRLPRPRPRPHLLPRP,-0.097
15,RRIRYRPPRLPRPRPRPTGDPRP,0.00498
16,RRIRVRPPRLPRPRPRPNMHPRP,-0.332
17,RRIRQRPPRLPRPRPRPIDAPRP,0.000655
18,RRIRCRPPRLPRPRPRPMFWPRP,-0.327
19,RRIRVRPPRLPRPRPRPDVSPRP,-0.0827
20,RRIRGRPPRLPRPRPRPETIPRP,0.224
21,RRIRWRPPRLPRPRPRPMTKPRP,0.181
22,RRIRYRPPRLPRPRPRPQNYPRP,-0.81
23,RRIRFRPPRLPRPRPRPKRFPRP,0.0111
24,RRIRNRPPRLPRPRPRPYQSPRP,-0.00256
25,RRIRCRPPRLPRPRPRPNIEPRP,-0.279
